One series relates to caspase-3/7. It is filed as cell-based, human.
In another series the test system is F98/EGFR-Dox cells. It is filed as cell-based, rat.
The test system of series [1] is MDA231luc cells. It is filed as cell-based, human.
For the next series, the system named is MDA231luc-Dox cells. It is filed as cell-based, human.
The target in a further series is GRP78/BiP (Homo sapiens, UniProt P11021). It is filed as cell-based.
For the next series, the target named is EGFR (Homo sapiens, UniProt P00533). It is filed as cell-based, rat.
In another series the test system is α-fodrin. It is filed as cell-based, human.
Series [2] deals with MDA231luc cells. It is filed as cell-based, human. This is another data set of the same source.

Entries after “also recorded” stand apart in the source; their conditions may differ.

Sequence of GRP78/BiP (P11021 19-654): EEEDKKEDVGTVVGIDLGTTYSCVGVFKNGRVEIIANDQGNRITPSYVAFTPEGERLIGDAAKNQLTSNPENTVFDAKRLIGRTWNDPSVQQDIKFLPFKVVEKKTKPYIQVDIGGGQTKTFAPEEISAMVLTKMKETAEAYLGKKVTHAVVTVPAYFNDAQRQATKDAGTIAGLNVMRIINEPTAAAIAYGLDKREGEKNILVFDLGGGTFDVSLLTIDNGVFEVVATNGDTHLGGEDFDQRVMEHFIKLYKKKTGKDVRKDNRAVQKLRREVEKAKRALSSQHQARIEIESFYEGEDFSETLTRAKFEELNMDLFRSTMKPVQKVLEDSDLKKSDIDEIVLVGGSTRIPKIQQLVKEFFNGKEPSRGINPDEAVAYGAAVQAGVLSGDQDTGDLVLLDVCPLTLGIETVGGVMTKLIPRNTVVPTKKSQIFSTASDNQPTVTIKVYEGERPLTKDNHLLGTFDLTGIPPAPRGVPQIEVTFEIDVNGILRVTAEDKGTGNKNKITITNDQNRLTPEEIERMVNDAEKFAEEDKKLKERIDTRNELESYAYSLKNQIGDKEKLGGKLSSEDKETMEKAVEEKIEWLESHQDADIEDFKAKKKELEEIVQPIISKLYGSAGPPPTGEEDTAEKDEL

B1: EGF-SubA: fusion protein (SEQ ID NO:13): Cys-tag, linker, human EGF, linker, 326 amino acid SubA fragment (protein)
chain: MKESCAKKFQRQHMDSGGGGSGGGGSGGGGSMGNSDSECPLSHDGYCLHDGVCMYIEALDKYACNCVVGYIGERCQYRDLKWWELRSMADIGSEKPWYFDAIGLTETTMSLTDKNTPVVVSVVDSGVAFIGGLSDSEFAKFSFTQDGSPFPVKKSEALYIHGTAMASLIASRYGIYGVYPHALISSRRVIPDGVQDSWIRAIESIMSNVFLAPGEEKIINISGGQKGVASASVWTELLSRMGRNNDRLIVAAVGNDGADIRKLSAQQRIWPAAYHPVSSVNKKQDPVIRVAALAQYRKGETPVLHGGGITGSRFGNNWVDIAAPGQNITFLRPDAKTGTGSGTSEATAIVSGVLAAMTSCNPRATATELKRTLLESADKYPSLVDKVTEGRVLNAEKAISMFCKKNYIPVRQGRMSEEL
modifications: fusion protein of subA and human EGF with cys tag consisting of SEQ ID NOS 7 to 12
In the case of B1, the “total DEVD- and specific caspase-3/7 activity” value in the series with caspase-3/7 is recorded as “significant increase”. Moreover, the “sensitivity of F98/EGFR-Dox cells relative to parental F98/EGFR” value with F98/EGFR-Dox cells is listed as “Enhanced sensitivity; also recorded: significantly more sensitive”. In the series on MDA231luc cells [1], the “effect of excess EGF on EGF-SubA toxicity” value is listed as “inhibited by excess of EGF; also recorded: excess of free EGF rescue cells” and the “fold lower sensitivity of MDA-231luc cells vs F98/EGFR cells” value is 10 fold. Further, the “sensitivity of MDA231luc-Dox cells relative to parental MDA231luc” value with MDA231luc-Dox cells was “Enhanced sensitivity; also recorded: significantly more sensitive”. In the series with GRP78/BiP, the “cleavage of BiP in combination treatment” value is reported as “effective cleavage of BiP” and the “cleavage of intracellular GRP78/BiP” value is “appearance of a 28-kDa fragment; also recorded: selectively cleaves intracellular BiP”. In addition, the EGFR tyrosine autophosphorylation entry with EGFR is “induced EGFR tyrosine autophosphorylation in the same concentration range”. Besides, the “accumulation of 150-kDa and 120-kDa fragments of α-fodrin” value in the series with α-fodrin was “Greater accumulation”. For the same molecule, the IC50 (commonly the concentration needed to halve the response being measured) in the series on parental F98 cells is around 2.5 nM. Also, in the series on MDA231luc cells [2], the “effect on bortezomib-induced cell growth inhibition” value was “enhances cell growth inhibition” and the “effect on thapsigargin-induced cell growth inhibition” value was “enhances cell growth inhibition”.

(Values after patent publication US20100104550A1 (priority 2006, published 2010).)
